From article PMC5700813, “A recombinant BBSome core complex and how it interacts with ciliary cargo” (eLife, 2017) come the findings set out here.

“And” between values parts separate entries of the source, which are not always exact repeats. Equal entries are not always repeated.

The nature of the series: Solubility of purified core BBSome. The series is classed as physicochemical. Conditions: purified 6mer core BBSome. Here is the method: The 6mer core BBSome could readily be purified in milligram quantities, and is soluble up to concentrations higher than 150 µM (>50 mg/ml). A single Strep affinity purification yielded almost pure complex with no obvious imbalance in the stoichiometry of components. The complex eluted as a single entity in all subsequent purification steps (Figure 1—figure supplement 3E), and was even resistant to high salt washes of up to 2.5 M NaCl, consistent with a previous study where the native BBSome was eluted with high salt concentrations from an Arl6 affinity column ([Jin et al., 2010]). The complex elutes in gel filtration with an apparent molecular weight of ~400 kDa, in acceptable agreement with the expected theoretical mass of 336.4 kDa (Figure 1—figure supplement 3C,D), but less consistent with it being a dimer.

Take “6mer core BBSome: recombinant human subcomplex composed of BBS1, 4, 5, 8, 9 and 18”: the “soluble up to concentration” value is “higher than 150 µM and > 50 mg/ml”.
